The experiment deals with 293T cells. As to the kind of experiment: Modified pGL4.72[hRlucCP] vector luciferase assay of RNAi/miRNA activity. Format: cell-based. Conditions: overexpression from pEGFP-C1; 10 nM vector-target RNAi; 48 hours post-transfection; FIG. 30. The procedure: To identify additional substrate proteins of PAPR13, immunoprecipitation experiments were performed on lysate from HeLa cells transfected with a pEGFP-C1 plasmid containing a sequence encoding a PARP13-GFP fusion protein following treatment with either 0 or 250 μM sodium arsenite for 30 minutes. The cell lysate was treated with an anti-GFP antibody and the resulting immunoprecipitated proteins were electrophoresed using SDS-PAGE. […] In a second set of experiments, the ability of the vector-target RNAi to reduce the expression of luciferase was measured in 293T cells transfected with pGL4.72[hRlucCP]™ vector, 20 nM vector-target RNAi, and 20 nM of negative RNAi control for PARP13 siRNA (siNeg; AllStars Negative Control siRNA; Qiagen Catalog No. 1027280) or PARP13 siRNA (siPARP13; SEQ ID NO: 40) following treatment with 0 or 30 nM pateamine A for 2 hours. […]
Experiments to determine the effect of knockdown of PARP13 on miRNA and RNAi activity were performed using a modified pGL4.72[hRlucCP]™-vector assay (Promega). […] Following 48-hours incubation, the level of luciferase protein production was measured using a luciferase assay kit (Promega). […]

B1: PARP13: PARP13 overexpressed from a pEGFP-C1 expression vector; isoform not specified (protein)
chain: ADPEVCCFITKILCAHGGRMALDALLQEIALSEPQLCEVLQVAGPDRFVVLETGGEAGITRSVVATTRARVCRRKYCQRPCDNLHLCKLNLLGRCNYSQSERNLCKYSHEVLSEENFKVLKNHELSGLNKEELAVLLLQSDPFFMPEICKSYKGEGRQQICNQQPPCSRLHICDHFTRGNCRFPNCLRSHNLMDRKVLAIMREHGLNPDVVQNIQDICNSKHMQKNPPGPRAPSSHRRNMAYRARSKSRDRFFQGSQEFLASASASAERSCTPSPDQISHRASLEDAPVDDLTRKFTYLGSQDRARPPSGSSKATDLGGTSQAGTSQRFLENGSQEDLLHGNPGSTYLASNSTSAPNWKSLTSWTNDQGARRKTVFSPTLPAARSSLGSLQTPEAVTTRKGTGLLSSDYRIINGKSGTQDIQPGPLFNNNADGVATDITSTRSLNYKSTSSGHREISSPRIQDAGPASRDVQATGRIADDADPRVALVNDSLSDVTSTTSSRVDDHDSEEICLDHLCKGCPLNGSCSKVHFHLPYRWQMLIGKTWTDFEHMETIEKGYCNPGIHLCSVGSYTINFRVMSCDSFPIRRLSTPSSVTKPANSVFTTKWIWYWKNESGTWIQYGEEKDKRKNSNVDSSYLESLYQSCPRGVVPFQAGSRNYELSFQGMIQTNIASKTQKDVIRRPTFVPQWYVQQMKRGPDHQPAKTSSVSLTATFRPQEDFCFLSSKKYKLSEIHHLHPEYVRVSEHFKASMKNFKIEKIKKIENSELLDKFTWKKSQMKEEGKLLFYATSRAYVESICSNNFDSFLHETHENKYGKGIYFAKDAIYSHKNCPYDAKNVVMFVAQVLVGKFTEGNITYTSPPPQFDSCVDTRSNPSVFVIFQKDQVYPQYVIEYTEDKACVIS
In the case of B1, the “decrease in the level of miRNA-mediated repression compared to control cells (EGFP- and G3BP-overexpressing cells)” value is 3 fold.

These data come from patent publication US8268550B2, “Compositions and methods for identification of PARP function, inhibitors, and activators” (Massachusetts Institute of Technology, priority 2009, dated 2012).
